This passage reports binding result and EC50 results from patent US20200010567A1 (NEURIMMUNE, published 2020).

Assay [1] has as its target T1, GA5: H-(GA)5HHHHHH-NH2.
T1 peptide: H-GAGAGAGAGAHHHHHH-NH2
Description: indirect ELISA, His-tagged peptide coated at 50 ug/ml, antibody titrated [also D00026 FIG. 7K]. The protocol: (§1) 96-well microplates (Corning Incorporated, Corning, USA) were coated with dipeptide repeat protein peptides at a concentration of 50 μg/ml in coating buffer (15 mM Na₂CO₃, 35 mM NaHCO₃, pH 9.42). Non-specific binding sites were blocked for 1 h at room temperature with PBS/0.1% Tween®-20 containing 2% BSA (Sigma-Aldrich, Buchs, Switzerland). Primary antibodies were diluted to the indicated concentrations and incubated 1 h at room temperature, followed by incubation with a donkey anti-human IgG Fcγ-specific antibody conjugated with HRP (Jackson ImmunoResearch Laboratories, Inc., West Grove, USA). Binding was determined by measurement of HRP activity in a standard colorimetric assay. EC₅₀ values were estimated by non-linear regression using GraphPad Prism software (San Diego, USA).
(§2) High affinity binding was detected for poly-GA DPRs harboring 10 or 20 (GA)-repeats, reflected in an EC₅₀ in the subnanomolar or low nanomolar range (FIGS. 7A, 7C-7I).

Assay [2] addresses T2, GA4: H-(GA)4HHHHHH-NH2.
T2 peptide: H-GAGAGAGAHHHHHH-NH2
The description is as above. The protocol:
as §1, §2

Assay [3] addresses T3, GA3: H-(GA)3HHHHHH-NH2.
T3 peptide: H-GAGAGAHHHHHH-NH2
The description is as above. The protocol:
as §1, §2

Assay [4] deals with T4, GA2: H-(GA)2HHHHHH-NH2.
T4 peptide: H-GAGAHHHHHH-NH2
Described as above. The protocol: as §1, §2

The target in assay [5] is T5, (GA)15: H-CHHHHHH(GA)15-OH.
T5 construct: synthetic, not coupled to BSA; also called poly-GA DPR protein peptide
T5 peptide: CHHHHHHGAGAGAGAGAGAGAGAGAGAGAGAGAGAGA
The assay is described as follows: indirect ELISA, uncoupled peptide coated, antibody titrated [also D00013 FIG. 3E]. The protocol:
as §1, with “In brief, dipeptide repeat proteins were synthesized and purified by Schafer-N(Copenhagen, Denmark): (GA)₁₅: H-CHHHHHH(GA)₁₅-OH; (GP)₁₅: H-C(GP)₁₅-OH; (GR)₁₅: H-C(GR)₁₅-OH; (PA)₁₅: H-C(PA)₁₅-OH; (PR)₁₅: H—C(PR)₁₅-OH. DPR protein peptides were then conjugated via a bifunctional linker (SMCC) to bovine serum albumin (BSA). 96-well microplates” for “96-well microplates”, “coated with BSA-coupled or -uncoupled dipeptide repeat” for “coated with dipeptide repeat”, “concentration of either 5 μg/ml or 20 μg/ml in” for “concentration of 50 μg/ml in”

In assay [6] the target is T6, BSA-coupled (GA)15 DPR protein peptide (bovine, conjugated via a bifunctional linker (SMCC) to bovine serum albumin).
T6 construct: also called BSA-(GA)15
The assay is described as follows: indirect ELISA, BSA-coupled peptide coated, antibody titrated [also D00012 FIG. 3C]. The protocol:
as §1, with “In brief, dipeptide repeat proteins were synthesized and purified by Schafer-N(Copenhagen, Denmark): (GA)₁₅: H-CHHHHHH(GA)₁₅-OH; (GP)₁₅: H-C(GP)₁₅-OH; (GR)₁₅: H-C(GR)₁₅-OH; (PA)₁₅: H-C(PA)₁₅-OH; (PR)₁₅: H—C(PR)₁₅-OH. DPR protein peptides were then conjugated via a bifunctional linker (SMCC) to bovine serum albumin (BSA). 96-well microplates” for “96-well microplates”, “coated with BSA-coupled or -uncoupled dipeptide repeat” for “coated with dipeptide repeat”, “concentration of either 5 μg/ml or 20 μg/ml in” for “concentration of 50 μg/ml in”

Assay [7] addresses T7, (GP)15: H-C(GP)15-OH.
T7 construct: synthetic, not coupled to BSA; also called poly-GP DPR protein peptide
T7 peptide: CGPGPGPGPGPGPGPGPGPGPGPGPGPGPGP
Description: indirect ELISA, uncoupled peptide coated, antibody titrated [also D00014 FIG. 3H]. The protocol: as §1, with “In brief, dipeptide repeat proteins were synthesized and purified by Schafer-N(Copenhagen, Denmark): (GA)₁₅: H-CHHHHHH(GA)₁₅-OH; (GP)₁₅: H-C(GP)₁₅-OH; (GR)₁₅: H-C(GR)₁₅-OH; (PA)₁₅: H-C(PA)₁₅-OH; (PR)₁₅: H—C(PR)₁₅-OH. DPR protein peptides were then conjugated via a bifunctional linker (SMCC) to bovine serum albumin (BSA). 96-well microplates” for “96-well microplates”, “coated with BSA-coupled or -uncoupled dipeptide repeat” for “coated with dipeptide repeat”, “concentration of either 5 μg/ml or 20 μg/ml in” for “concentration of 50 μg/ml in”

The target in assay [8] is T8, BSA-coupled (GP)15 DPR protein peptide (bovine, conjugated via a bifunctional linker (SMCC) to bovine serum albumin).
T8 construct: also called BSA-(GP)15
The assay is described as follows: Western blot, BSA-coupled peptide. The protocol: (§3) Resolved proteins were then electroblotted (Novex® Semi-Dry Blotter, 1 h, 25V) on methanol-activated PVDF membranes (Immobilon®-P Transfer Membrane, Merck & Cie, Schaffhausen, Switzerland) by the use of Novex® NuPAGE® transfer buffer 2× (Life Technologies Europe B.V., Zug, Switzerland). Non-specific binding sites were blocked overnight at 4° C. (or alternatively for 1 h at room temperature) with PBS/0.1% Tween®-20 containing 2% BSA (Sigma-Aldrich, Buchs, Switzerland) (PBST). […] Membranes were washed three times in PBST for 15 min at RT and then incubated with a donkey anti-human IgG Fcγ-specific antibody conjugated with HRP (1:20000 or 1:10000 dilution, Jackson ImmunoResearch Laboratories, Inc., West Grove, USA) for 1 h at room temperature. Antibody binding was determined by membrane development using ECL and ImageQuant 350 detection (GE Healthcare, Otelfingen, Switzerland).
(§4) The binding specificity of the human-derived antibodies to BSA-coupled C9orf72 dipeptide repeat proteins (GA)₁₅, (GP)₁₅, (GR)₁₅, (PA)₁₅ and (PR)₁₅ was determined by Western blot analysis.

Assay [9] has as its target T9, BSA-coupled (PA)15 DPR protein peptide (bovine, UniProt P02769 25-607, conjugated via a bifunctional linker (SMCC) to bovine serum albumin).
T9 construct: also called BSA-(PA)15
The assay is described as follows: Western blot, BSA-coupled peptide. The protocol:
as §3, §4

T6 sequence (P02769 25-607 limits assumed, chain 2 of 2, one chain of several): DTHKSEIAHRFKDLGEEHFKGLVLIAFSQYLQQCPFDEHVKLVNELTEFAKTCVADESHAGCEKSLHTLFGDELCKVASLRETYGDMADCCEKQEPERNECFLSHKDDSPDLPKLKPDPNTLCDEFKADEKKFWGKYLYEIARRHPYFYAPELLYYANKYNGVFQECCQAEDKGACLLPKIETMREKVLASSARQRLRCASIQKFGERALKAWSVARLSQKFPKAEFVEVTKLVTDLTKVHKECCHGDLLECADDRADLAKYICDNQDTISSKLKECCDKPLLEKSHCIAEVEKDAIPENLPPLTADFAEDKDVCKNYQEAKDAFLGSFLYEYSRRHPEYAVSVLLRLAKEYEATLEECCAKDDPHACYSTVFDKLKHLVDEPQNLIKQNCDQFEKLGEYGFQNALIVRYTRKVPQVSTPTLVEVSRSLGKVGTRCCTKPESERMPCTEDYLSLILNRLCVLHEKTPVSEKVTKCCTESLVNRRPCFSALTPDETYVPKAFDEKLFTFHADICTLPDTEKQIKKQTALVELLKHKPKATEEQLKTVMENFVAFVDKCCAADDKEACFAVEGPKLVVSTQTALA
T8 sequence (P02769 25-607 limits assumed, chain 2 of 2, one chain of several): as above
T9 sequence (peptide, as listed by the source limits assumed, chain 1 of 2): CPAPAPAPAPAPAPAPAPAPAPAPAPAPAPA
T9 sequence (P02769 25-607 limits assumed, chain 2 of 2): as the sequence (P02769 25-607 limits assumed, chain 2 of 2, one chain of several) above

B1: NI-308.5G2 (antibody, V domains shown)
VH: EVQLVQSGADLRNPGASVTVSCTASGYHFADNAINWLRQAPGQRLEWMGWINIYSGNTKYSQNFQGRVTFTRNTSASTAFMHLRSLRSEDTAVYFCARDPDSSGYYLPYFDYWGQGTLVTVSS
VL: DIQLTQSPDSLTLSLGERATINCKSSQSVFYNSNNKNYLAWYQQKPGQPPKLLMYWASTRESGVTDRFSGSGSGTDFTLTITNLQAEDVAVYYCQQFYSSPLTFGGGTKVEIK
notes: Recombinant complete human IgG1, kappa
On to B1, for which the binding result in [1], in assay [2], in assay [3] and in assay [4] was “no binding (tested: about 4x10^5 pM (last point))” throughout.

B2: NI-308.45C2 (antibody, V domains shown)
VH: QLQLQESGPGLVKPSQILSLTCAISGDSVFSNSAAWNWIRQSPSRGLEWLGRTYYRSKWDNDYAPSVKSRISINPDTSKNQFSLQLNSVTPEDTAVYYCAREVAYCGGDCYSVSFDYWGQGTLVTVSS
VL: not shown
notes: as for B1
Consider B2, for which the midpoint of the response in assay [5], the EC50, lay at 1.1 nM. That is a single-digit nanomolar value.

B3: NI-308.15O7 (antibody, V domains shown)
VH: QVQLVESGGGVVQPGRSLRLSCAASGFTFSNHAMHWVRQAPGKGLEWVAVISYDGENTYYADSIEGRFTISRDNFKNTLFLQMYSLTADDTAMYFCARGGRRGHFTSYYLDYWGQGTLVTVSS
VL: CDIQMTQSPSSLSASVGDRVTITCRASQNIDKYLNWYQQIPGKAPKLLIYAASSLHSGVPSRFSGSGSGTDFSLTISSLQPEDFAIYYCQQSYSSFRTFGQGTKLEIK
B3 showed an EC50 in assay [6] of 0.41 nM.

B4: NI-308.46E9 (antibody, V domains shown)
VH: QVQLQESGPGLVKPSETLSLTCTVSGASISGSTYYWGWIRQPPGKGLEYIGRIYYSGSTYYNPSLKSRATISVDTSKNQLSLTLSSVTAADTAVYYCVRPFYAGSGNSPFDYWGQGTLVTVSS
VL: CEIVLTQSPATVSVSPGERATLSCRASQSVSTNLAWYQQKPGQPPRLLIYGASTRATGIPARFSGSGSGAEFTLTISSLQSEDFVVYYCQQYNNWPPAFGGGTKVEIK
notes: as for B1
B4 had an EC50 in assay [7] of 22 nM.

B5: NI-308.6B11 (antibody, V domains shown)
VH: EVQLVQSGAEVKRPGASVKVSCKVSGYTLTELSMHWVRQAPGKGLEWMGGFDPEDGETVYAQKFQGRVTMTEDTSTDTAYMELSSLRSEDTALYHCATYGSSWHWNEGNEGSYYFDYWGQGTLVTVSS
VL: CDIQMTQSPSSLSASVGDRVTITCQASQDISIYLNWYQQKPGKAPKLLIYDASNLETGVPSRFSGSGSGTDFTFTISGLQPEDVARYYCQQYDDLPITFGQGTRLEIK
notes: as for B1
For B5, the binding result in assay [8] and in assay [9] was “no binding (tested: 10 nM or 100 nM)” in each case.
